Assay results published in article PMC7673715.

Molecular target: MyoVa^GTD (mouse) (UniProt Q99104)
Experiment: ITC

fold higher affinity than MICAL1^GTBM: 25 fold
Substance: Spir2^GTBM (domain or fragment)
